The target of test [1] is T1, SF162 gp120 (HIV-1 clade B, isolate SF162, UniProt P19550). Nature of the test: cell-based or functional assay.
The target of test [2] is 426c gp140 (HIV-1 clade C, 426c, UniProt M4Q8P8, strain). Nature of the test: BLI; antibody-capture: IgG (15 µg/mL in PBS) on anti-human IgG Fc capture biosensors; Env in solution at one concentration (1.2 µM in the legend, 1.02 µM in the methods) in 1x kinetics buffer (PBS, 0.01% BSA, 0.02% Tween 20, 0.005% NaN3). The conditions noted are these: both partners purified. On the technique in general: In BLI a coated tip is dipped into the sample, and binding shifts an interference pattern.

A further test concerns the target T2, QH0692 gp140 trimer (HIV-1 clade B, isolate QH0692, UniProt Q5G5V7, strain).
T2 construct: also called trimeric QH0692 gp140
Nature of the test: ELISA. As to conditions: both partners purified.

A further test has as its target T3, SF162 gp140 trimer (HIV-1 clade B, isolate SF162, UniProt P19550, strain).
T3 construct: also called trimeric SF162 gp140
In words: ELISA. As to conditions: both partners purified. A general note: In an ELISA, binding on a coated surface is turned into a signal by an enzyme label.

Test [3] addresses T1, SF162 gp120. In words: ELISA. As to conditions: both partners purified.
A further test addresses T4, HXB2 gp120 (HIV-1 clade B, isolate HXB2, UniProt P04578).
T4 construct: also called HXBc2; HXB2 Env; source: bought: Immune Technologies
Nature of the test: ELISA. The conditions noted are these: both partners purified.

The next test has as its target Q461e2 gp140 (HIV-1 clade A, Q461e2, UniProt Q8JDJ9, strain). Nature of the test: BLI; antibody-capture: IgG (15 µg/mL in PBS) on anti-human IgG Fc capture biosensors; Env in solution at one concentration (1.2 µM in the legend, 1.02 µM in the methods) in 1x kinetics buffer (PBS, 0.01% BSA, 0.02% Tween 20, 0.005% NaN3). The conditions noted are these: both partners purified.

Test [4] addresses 426c gp140 (HIV-1 clade C, 426c, UniProt M4Q8P8, strain). The test is described as above. As to conditions: both partners purified. This is another data set of the same source.
A further test addresses Q168a2 gp140 (HIV-1 clade A, Q168a2, UniProt Q8JDN0, strain). Described as above. As to conditions: both partners purified.
A further test addresses T5, QH0692 gp120 (HIV-1 clade B, isolate QH0692, UniProt Q5G5V7, strain).
T5 construct: also called QH0692 Env; recombinant QH0692 Env; source: bought: Immune Technologies
Nature of the test: BLI. As to conditions: both partners purified.

Changes are numbered by the printed parent chain. Names may count otherwise.

B1: mature IgG b12 (antibody, V domains shown)
VH: QVQLVQSGAEVKKPGASVKVSCQASGYRFSNFVIHWVRQAPGQRFEWMGWINPYNGNKEFSAKFQDRVTFTADTSANTAYMELRSLRSADTAVYYCARVGPYSWDDSPQDNYYMDVWGKGTTVIVSS
VL: EIVLTQSPGTLSLSPGERATFSCRSSHSIRSRRVAWYQHKPGQAPRLVIHGVSNRASGISDRFSGSGSGTDFTLTITRVEPEDFALYYCQVYGASSYTFGQGTKLERK
notes: also called mature b12; mature b12 IgG
Turning to B1, the “neutralisation of SF162 virions (luciferase reporter cells), IC50” value with SF162 gp120 [1] worked out at 0.01 µg/mL. The binding result with 426c gp140 [2], with QH0692 gp140 trimer and with SF162 gp140 trimer was “binds” throughout.

B2: b12 IgG, germline heavy chain with G100W, paired with the mature light chain (antibody, V domains shown)
VH: QVQLVQSGAEVKKPGASVKVSCKASGYTFTSYAMHWVRQAPGQRLEWMGWINAGNGNTKYSQKFQGRVTITRDTSASTAYMELSSLRSEDTAVYYCARVGPYCWGDSPQDNYYMDVWGKGTTVTVSS
VL: B1 VL
As for B2, the binding result with SF162 gp120 [3] and with HXB2 gp120 was “no binding (tested: 30 µg/mL)” in each case.

B3: b12 IgG, germline heavy chain with S31N/A52P/G53Y/G100W, paired with the mature light chain (antibody, V domains shown)
VH: B2 VH with S31N, A53P, G54Y
VL: B1 VL
With B3, the binding result was “no binding (tested: 30 µg/mL)” with SF162 gp120 [3] and “binds” with HXB2 gp120.

B4: germline IgG b12 (antibody, V domains shown)
VH: B2 VH with W104G
VL: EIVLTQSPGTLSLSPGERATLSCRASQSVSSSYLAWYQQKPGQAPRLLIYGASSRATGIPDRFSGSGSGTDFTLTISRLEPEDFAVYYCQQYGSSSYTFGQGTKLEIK
notes: also called germline b12; soluble germline version of IgG b12
Turning to B4, the binding result was “no binding (tested: 1.2 µM)” with Q461e2 gp140, “no binding (tested: 1.2 µM)” with 426c gp140 [4], “no binding (tested: 1.2 µM)” with Q168a2 gp140 and “no binding (tested: 30 µg/mL)” in the test with SF162 gp140 trimer.

B5: 3BNC60 chimeric IgG, germline heavy chain with mature light chain (antibody, V domains shown)
VH: not shown
VL: DIQMTQSPSSLSARVGDTVTITCQANGYLNWYQQRRGKAPKLLIYDGSKLERGVPARFSGRRWGQEYNLTINNLQPEDVATYFCQVYEFIVPGTRLDLK
notes: also called gHC/mLC (3BNC60)
As for B5, the binding result with QH0692 gp120 is listed as “no binding (tested: 100 nM; less than 0.2 nM shift)”.

B6: NIH45-46 chimeric IgG, germline heavy chain with mature light chain (antibody, V domains shown)
VH: not shown
VL: EIVLTQSPATLSLSPGETAIISCRTSQSGSLAWYQQRPGQAPRLVIYSGSTRAAGIPDRFSGSRWGADYNLSISNLESGDFGVYYCQQYEFFGQGTKVQVD
Take B6: in the test with QH0692 gp120, the binding result is on record as “no binding (tested: 100 nM; less than 0.2 nM shift)”.

The values above are taken from publication PMC3536657 (PLoS Pathogens, 2013).
